Like-named read-outs stand apart in the source and are kept apart here. Square brackets hold non-standard residues; d marks the D form. Primed or numbered codes have the meaning given here. Ends that are not written are not given here. * marks the point of attachment. PEG6‑diacid = 4,7,10,13,16,19,22-Heptaoxapentacosane-1,25-dioic acid, O=C(O)CCOCCOCCOCCOCCOCCOCCOCCC(=O)*; PEG8‑diacid = PEG8-diacid linker: 4,7,10,13,16,19,22,25,28-nonaoxahentriacontane-1,31-dioic acid; cyclohexylethyl″ = cyclohexylethyl group on the nitrogen (N-alkyl substituent), C1CCC(CC*)CC1; PEG4‑diacid = 4,7,10,13,16-pentaoxanonadecane-1,19-dioic acid; (naphthalen-2-yl)ethyl = c1ccc2cc(CC*)ccc2c1; Cyclohexylmethyl = C1CCC(C*)CC1; NMeE = CN[C@@H](CCC(=O)O)C(=O)O; cyclohexylethyl = C1CCC(CC*)CC1; NMeA = CN[C@@H](C)C(=O)O; Bn = c1ccc(C*)cc1

In test [1] the target is T1, HIS-PDZ1 protein (PSD-95 PDZ1, residues 61-151, with tag …) (human, UniProt P78352 61-151).
T1 construct: expressed in E. coli
The experiment in a line: FP competition, fluorescent NR2B probe.

In test [2] the target is T2, HIS-PDZ2 protein (PSD-95 PDZ2, residues 155-249, with tag …) (human, UniProt P78352 155-249). The test is described as follows: FP competition, fluorescent NR2B probe.
Test [3] has as its target T3, HIS-PDZ3 protein (PSD-95 PDZ3, residues 309-401, with tag …) (human, UniProt P78352 309-401). The experiment in a line: FP competition, fluorescent CRIPT probe.
Test [4] concerns the target T1, HIS-PDZ1 protein (PSD-95 PDZ1, residues …). The test is described as follows: FP competition, fluorescent NR2B probe. This is another data set of the same source.
Test [5] deals with T2, HIS-PDZ2 protein (PSD-95 PDZ2, residues …). The test is described as follows: FP competition, fluorescent NR2B probe. This is another data set of the same source.
Test [6] deals with T3, HIS-PDZ3 protein (PSD-95 PDZ3, residues …). The experiment in a line: FP competition, fluorescent CRIPT probe. The source holds these as a separate data set.
Test [7] deals with T1, HIS-PDZ1 protein (PSD-95 PDZ1, residues …). The test is described as follows: FP competition, fluorescent NR2B probe. The source holds these as a separate data set.
Test [8] deals with T2, HIS-PDZ2 protein (PSD-95 PDZ2, residues …). The test is described as follows: FP competition, fluorescent NR2B probe. This is another data set of the same source.
For test [9] the target is unchanged. The test is described as follows: FP competition, fluorescent NR2B probe. This is another data set of the same source.
The target of test [10] is T4, HIS-PDZ1-2 protein (PSD-95 PDZ1-2 tandem, residues 61-249, with tag …) (human, UniProt P78352 61-249). The test is described as follows: FP competition, fluorescent NR2B probe.
The target in test [11] is T4, HIS-PDZ1-2 protein (PSD-95 PDZ1-2 …). The experiment in a line: ITC. For orientation: In ITC the heat of successive injections is recorded.
Test [12] shares this target. The experiment in a line: FP competition, fluorescent NR2B probe; exact Ki not calculable.

The term Ki denotes a dissociation constant, usually derived from enzyme kinetics or from competition with a known ligand. As for ATAV [ATAV (68)], the inhibition constant (Ki) was 64 µM in test [1], 73 µM in test [2] and 400 µM in test [3].

B1: ATDV (71), N-cyclohexylethyl (peptide)
peptide: {cyclohexylethyl″}-ATDV-OH
SMILES: CC(C)[C@H](NC(=O)[C@H](CC(=O)O)NC(=O)[C@@H](NC(=O)[C@H](C)NCCC1CCCCC1)[C@@H](C)O)C(=O)O
In the case of B1, the inhibitory constant (Ki) in test [1] worked out at 5.8 µM; in test [2], 3.6 µM.

B2: N-(3,4-Difluorophenyl)propyl-ETAV (62) (peptide)
peptide: ETAV
modifications: not fully specified
notes: The printed formula C25H37F2N4O8 points to an ethyl spacer, the printed name says propyl
In the case of B2, the Ki in [4] stood at 0.98 µM; in test [5] it was 1 µM; in test [6], 7.8 µM.

For butyl-ETAV [N-Butyl-ETAV (54)], the Ki in test [4] worked out at 8.4 µM; in test [5], 4 µM.

For Bn-ETAV [N-Benzyl-ETAV (58)], the Ki in [4] is 7.2 µM; in test [5], 5.2 µM; in test [6], 63 µM.

B3: ETDV (64) (peptide)
peptide: ETDV
notes: also called 28 (ESDV with Ser P^-2 replaced by Thr)
As to B3, in test [3], the binding result is reported as “no binding”.

In test [5], Phenylethyl-ETAV [N-Phenylethyl-ETAV (59)] gave an inhibition constant (Ki) of 1.6 µM.

Consider [NMeE]TDV [EMeTDV (36)], for which the “fold more potent than WT peptide 1” value in [7] is around 3 fold.

With ESQV [Compound 22 (ESDV with Asp P^-1 replaced by Gln)], the binding result in test [7] and in test [8] was “binds” each time.

B4: N-(3,4-Dichlorophenyl)propyl-ETAV (61) (peptide)
peptide: ETAV
modifications: not fully specified
notes: The printed formula C25H37Cl2N4O8 and the comparison with 59 point to an ethyl spacer, the printed name says propyl
For B4, the Ki in [4] was determined as 2.4 µM; in test [5], 1.1 µM; in test [6] it was 6.7 µM.

As for [NMeE]TQV [EMeTQV (39)], in test [7], the “fold more potent than WT peptide 1” value was around 3 fold.

As to ESEV [Compound 23 (ESDV with Asp P^-1 replaced by Glu)], the binding result in [7] and in [8] was “binds” each time.

B5: ETDV (69), N-cyclohexylethyl (peptide)
peptide: {cyclohexylethyl″}-ETDV-OH
SMILES: CC(C)[C@H](NC(=O)[C@H](CC(=O)O)NC(=O)[C@@H](NC(=O)[C@H](CCC(=O)O)NCCC1CCCCC1)[C@@H](C)O)C(=O)O
Consider B5, for which the values for the inhibition constant Ki in test [1] and in [2] were 1.8 µM and 0.75 µM, respectively. Also, the binding result in [3] is on record as “no binding”.

Take Et-ETAV [N-Ethyl-ETAV (52)]: the inhibition constant (Ki) in test [4] worked out at 9.3 µM; in [5], 9.6 µM; in test [6] it was 69 µM.

On to cyclohexylethyl-ETAV [N-Cyclohexylethyl-ETAV (56)], for which the Ki in test [4] was determined as 0.94 µM; in test [5], 0.45 µM; in [1], 0.94 µM; in [2], 0.45 µM; in [6], 11 µM; in test [3] it was 11 µM.

For the molecule {(naphthalen-2-yl)ethyl}-ETAV [N-(Naphtalene-2-yl)ethyl-ETAV (63)], the inhibition constant (Ki) in test [4] was 1 µM; in [5] it was 0.95 µM; in test [6], 10 µM.

For the molecule cyclohexylethyl-ATAV [ATAV (73), N-cyclohexylethyl], the Ki was 8.9 µM in [1], 8.1 µM in test [2] and 89 µM in test [3].

In test [5], phenylpropyl-ETAV [N-Phenylpropyl-ETAV (60)] gave an inhibition constant (Ki) of 3.1 µM.

For the molecule QTAV [QTAV (67)], the inhibition constant Ki in [1] was 112 µM; in test [2] it was 108 µM.

Turning to cyclohexylethyl-QTAV [QTAV (72), N-cyclohexylethyl], the figures for the inhibition constant Ki in test [1], in test [2] and in [3] were 21 µM, 12 µM and 141 µM, respectively.

Regarding Cyclohexylmethyl-ETAV [N-Cyclohexylmethyl-ETAV (55)], the Ki in [4] came out at 1 µM; in test [5] it was 1.3 µM; in test [6], 21 µM.

Regarding {cyclohexylethyl″}-QTDV-OH [QTDV (70), N-cyclohexylethyl], in test [3], the binding result is recorded as “no binding”.

B6: Compound 85 (ESDV dimerized with PEG8) (peptide)
peptide: ESDV
modifications: also: dimer: two peptides joined at N-terminal amines by amide bonds through a PEG8-diacid linker
notes: Dimeric ligand
Regarding B6, the inhibition constant (Ki) in test [9] stood at 19 µM; in test [10] it was 1 µM.

Usually Kd stands for the equilibrium constant for the complex coming apart. Read a low Kd as a tighter complex. As to {PEG8‑diacid}-IESDV (also: dimer: two peptides N-terminally joined via PEG8-diacid, Dimeric ligand) [(IESDV)2PEG8 (76)], the equilibrium dissociation constant (Kd) in test [11] was determined as 0.12 µM. In addition, the Ki in test [9] is 2.6 µM; in test [12], around 0.1 µM.

{PEG2‑diacid}-IESDV (also: dimer: two peptides N-terminally joined via PEG2-diacid, Dimeric ligand) [Compound 79 (IESDV dimerized with PEG2-diacid)] showed a Kd in test [11] of 0.22 µM. The Ki in [9] was determined as 4.7 µM; in test [10], 0.27 µM.

B7: Compound 84 (ESDV dimerized with PEG12) (peptide)
peptide: ESDV
modifications: also: dimer: two peptides joined at N-terminal amines by amide bonds through a PEG12-diacid linker
notes: Dimeric ligand
In test [10], B7 displayed a Ki of 0.92 µM.

In test [11], {PEG6‑diacid}-IESDV (also: dimer: two peptides N-terminally joined via PEG6-diacid, Dimeric ligand) [(IESDV)2PEG6 (77)] showed a Kd of 0.039 µM. Moreover, the Ki is 2 µM in test [9] and around 0.1 µM in [12].

Consider ETAV [ETAV (51)], for which the Ki in [6] and in test [3] was 260 µM throughout.

With ATDV [ATDV (66)], the inhibition constant Ki in test [1] was determined as 30 µM; in test [2], 38 µM. For the same molecule, in test [3], the binding result is “no binding”.

For QTDV [QTDV (65)], the results for the inhibition constant (Ki) in test [1] and in test [2] were 58 µM and 60 µM, respectively. Moreover, in [3], the binding result is on record as “no binding”.

As to {PEG1‑diacid}-IESDV (also: dimer: two peptides N-terminally joined via PEG1-diacid, Dimeric ligand) [Compound 80 (IESDV dimerized with PEG1-diacid)], in test [11], binding was characterised by a dissociation constant (Kd) of 0.46 µM. Further, the Ki in [9] is 4.7 µM; in [10], 0.56 µM.

As to {PEG4‑diacid}-IAT[NMeA]V-OH (also: dimer: two peptides N-terminally joined via PEG4-diacid, Dimeric ligand) [(IATAMeV)2PEG4 (90)], the inhibition constant (Ki) in [9] was 103 µM; in [10], 13 µM.

B8: (IATAV)2PEG4 (88) (peptide)
peptide: IATAV
modifications: also: dimer: two peptides joined at N-terminal amines by amide bonds through a PEG4-diacid linker
notes: Dimeric ligand
Turning to B8, the Ki in test [10] came to 1.1 µM.

B9: (IATAV)2PEG12 (87) (peptide)
peptide: IATAV
modifications: also: dimer: two peptides joined at N-terminal amines by amide bonds through a PEG12-diacid linker
notes: Dimeric ligand
Consider B9, for which the Ki worked out at 13 µM in [9] and 1 µM in test [10].

Consider IAT[NMeA]V [IATAMeV (89)], for which the Ki was found to be 104 µM in test [9] and 142 µM in [10].

(Values after patent US20160176924A1 (UNIVERSITY OF COPENHAGEN, published 2016).)
